Measured values taken from patent publication US20240294650A1 (Alector, published 2024).

T1: MerTK N-terminal ECD Half-and-half chimera (human)
T1 construct: tested as culture supernatant; also called MerTK N-term half-and-half chimera; MerTK N-terminal ECD (NT-Ig1-Ig2) + Axl C-terminal ECD (FN1-FN2-JM)
T1 chain: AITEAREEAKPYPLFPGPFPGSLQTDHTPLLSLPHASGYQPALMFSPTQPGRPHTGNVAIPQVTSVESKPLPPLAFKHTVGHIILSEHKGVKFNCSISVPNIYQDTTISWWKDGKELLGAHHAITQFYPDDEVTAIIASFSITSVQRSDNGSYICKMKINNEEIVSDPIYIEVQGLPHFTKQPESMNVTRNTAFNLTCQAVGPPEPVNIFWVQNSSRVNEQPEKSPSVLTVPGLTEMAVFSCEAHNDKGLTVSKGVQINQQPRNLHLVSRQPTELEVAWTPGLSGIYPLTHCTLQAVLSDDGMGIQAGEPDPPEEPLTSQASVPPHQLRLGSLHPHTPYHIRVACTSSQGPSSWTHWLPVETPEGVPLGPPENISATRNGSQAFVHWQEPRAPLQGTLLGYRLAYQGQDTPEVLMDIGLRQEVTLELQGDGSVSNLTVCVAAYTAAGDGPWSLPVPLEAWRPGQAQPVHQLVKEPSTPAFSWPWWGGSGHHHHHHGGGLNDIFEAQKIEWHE

T2: recombinant cynomolgus MerTK extracellular domain (cynomolgus, UniProt Q12866 21-505 (human entry))
T2 construct: also called cyno MerTK ECD; not shown: polyHis or TEVS/Thrombin/murine IgG2a-Fc tag
T2 chain: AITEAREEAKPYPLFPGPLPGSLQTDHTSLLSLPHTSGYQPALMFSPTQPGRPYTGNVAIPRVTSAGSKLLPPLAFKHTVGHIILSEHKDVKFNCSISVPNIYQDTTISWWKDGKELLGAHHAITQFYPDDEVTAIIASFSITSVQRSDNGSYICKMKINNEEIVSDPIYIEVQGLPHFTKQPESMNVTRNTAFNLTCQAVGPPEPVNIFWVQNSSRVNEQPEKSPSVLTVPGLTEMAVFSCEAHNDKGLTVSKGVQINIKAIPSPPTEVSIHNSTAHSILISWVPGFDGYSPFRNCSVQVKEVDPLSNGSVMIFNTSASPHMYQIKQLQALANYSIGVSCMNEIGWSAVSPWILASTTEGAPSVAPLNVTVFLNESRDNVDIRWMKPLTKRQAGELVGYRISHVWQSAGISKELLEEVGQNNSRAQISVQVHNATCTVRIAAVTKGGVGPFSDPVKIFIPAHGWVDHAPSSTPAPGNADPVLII

T3: recombinant murine MerTK extracellular domain (mouse, UniProt Q60805 19-497)
T3 construct: also called Mouse MerTK; murine MerTK ECD; not shown: polyHis or TEVS/Thrombin/murine IgG2a-Fc tag
T3 sequence: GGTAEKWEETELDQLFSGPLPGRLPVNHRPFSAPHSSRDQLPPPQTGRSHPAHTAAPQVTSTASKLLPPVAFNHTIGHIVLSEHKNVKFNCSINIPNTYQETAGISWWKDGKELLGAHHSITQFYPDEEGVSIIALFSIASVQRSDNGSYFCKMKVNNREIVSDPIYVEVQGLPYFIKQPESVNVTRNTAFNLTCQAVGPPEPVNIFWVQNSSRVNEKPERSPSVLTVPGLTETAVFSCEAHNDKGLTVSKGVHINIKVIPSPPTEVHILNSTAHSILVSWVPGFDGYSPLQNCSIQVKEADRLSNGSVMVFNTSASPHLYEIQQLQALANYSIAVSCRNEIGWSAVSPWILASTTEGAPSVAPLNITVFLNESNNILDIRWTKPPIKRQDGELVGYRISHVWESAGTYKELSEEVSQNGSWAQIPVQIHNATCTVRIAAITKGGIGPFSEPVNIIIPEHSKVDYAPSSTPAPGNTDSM


Experiments:
[1] = target: T1, MerTK N-terminal ECD Half-and-half …; experiment: SPR, construct supernatant over immobilised Ab
Method: Binding of anti-MerTK antibodies of the present disclosure to these domain-swapped chimera or deletion mutants was tested by Surface Plasmon Resonance (SPR) using Carterra LSA. Purified anti-MerTK antibodies were immobilized in duplicate on a HC30M chip (Carterra) by amine coupling, following the manufacturer's instructions (described previously).
Supernatants containing the constructs were diluted 1:1 with running buffer containing 0.5 mg/mL BSA (HBS-TE, Carterra; BSA, Sigma) and injected over the immobilized antibodies. The surface was regenerated with 10 mM Glycine pH2.0 after each construct injection. Sensorgrams were analyzed using Carterra Epitope software to identify patterns of construct binding. Loss of binding to MerTK constructs with domains deleted or swapped in from Axl and/or gain of binding to Axl constructs with MerTK domains swapped in were evaluated. Data from these studies were used to construct a domain binding map for anti-MerTK antibodies and their binding to various domains of human MerTK.

[2] = target: T2, recombinant cynomolgus MerTK …; experiment: SPR Carterra LSA
Method: Binding kinetics of anti-MerTK IgG1 antibodies of the present disclosure to human, cyno, and murine MerTK were evaluated using a Carterra LSA instrument (Carterra, Salt Lake City, UT). […] A HC200M sensor chip (Carterra) was activated using the single channel flow cell with a 7-minute injection of a 1:1:1 mixture of 100 mM MES pH 5.5, 100 mM sulfo-NHS, 400 mM EDC (all reconstituted in MES pH 5.5; 100 μl of each mixed in vial immediately before running assay). After switching to the multi-channel array flow cell, the antibodies were injected over the activated chip in three 96-spot arrays for 10 minutes each. The remaining unconjugated active groups on the chip were then blocked by injecting 1M Ethanolamine pH 8.5 (Carterra) for 7 minutes using the single channel flow cell. The resulting sensor chip contained three spots for each antibody, at three different densities. Two independent experiments were performed as follows, resulting in an N of between one and six determinations for each antibody. Spots that yielded less than 25 RU of analyte binding were excluded from further analysis.
After priming with running buffer (HBS-TE, Carterra) with 0.5 mg/ml BSA (Sigma), the immobilized anti-MerTK antibodies were tested for their ability to bind to several forms of recombinant MerTK extracellular domain, including human, cynomolgus, and mouse orthologs as described above. Estimates of affinity were generated by injecting each analyte over the entire antibody array using the single channel flow cell. MerTK analytes were diluted with running buffer, in a series of six, three-fold serial dilutions starting from 1 μM for human and cynomolgus MerTK, and 600 nM for mouse MerTK. Analytes were injected for 5 minutes, and dissociation was followed for 10 minutes. After each analyte injection, antibodies were regenerated with either Protein A/G Elution Buffer (Thermo) with 1M NaCl (Teknova), or with 10 mM Glycine pH 2.5. Three buffer blanks were run between each series (one species per series). Data were processed and analyzed using NextGenKIT high-throughput kinetics analysis software (Carterra).

[3] = target: T2, recombinant cynomolgus MerTK …; experiment: SPR Carterra LSA, Ab immobilised
Summary of the method: (§1)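 Surface plasmon resonance on a Carterra LSA measured affinity of immobilized antibodies for human, cynomolgus or mouse MerTK ectodomain diluted in HBS-TE with 0.5 mg/ml BSA. Analytes flowed over the full array, surfaces were regenerated with Protein A/G Elution Buffer plus 1M NaCl or 10 mM Glycine pH 2.5, and spots binding under 25 RU were discarded before kinetic fitting.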

[4] = target: T3, recombinant murine MerTK extracellular …; experiment: SPR Carterra LSA, Ab immobilised
Summary of the method: as §1

binding result [1] | Ratio of KD for Cynomolgus vs Human MerTK [2] [ratio] | Kd [3] [nM] | Kd [4] [nM] | Binder | binding result [4]
no binding | 2.9 | 52 |  | MTK-229 (antibody, human IgG1, V domains shown) VH: QVQLQQSGPELVKPGASVKISCKASGYEFSRSWMNWVKQRPGKGLEWIGRIYPGDGDTNYKGKLKGQATLTADKSSSTAYMQLSSLTFEDSAVYFCARGGGYYYDSRYEGFVYWGQGTVVTVSA VL: QIVLTQSPAIMSASPGEEVTMTCSASSSVSYMHWYQQKSGTSPKRWIYDTSKLASGVSGRFSGSGSGTSYSLTISSMEAEDAATYYCQQWSSNPPITFGAGTKLELK | 
no binding |  |  | 320 | MTK-214 (antibody, human IgG1, V domains shown) VH: QVQLQQPGAELVKPGASVKVSCKASGYTFTNYWMHWMKQRPGQGLEWIGRIHPFDSDTNYNEKFTDKATLTVDKSSSTAYMQLSSLTSEDSAVYYCAIGTLIYWGQGTTLTASS VL: DILLTQSPATLSVTPGETVSLSCRASQSIYKKLHWFQQRSHRSPRLLIKFASDSISGIPSRFTGSGSGTDYTLSINSVKPEDEAIYYCLQGYSTPLTFGAGTKLELK | 
no binding |  |  | 430 | MTK-224 (antibody, human IgG1, V domains shown) VH: QVQLQQPGAELVKPGASVKVSCKASGYTFTSYWMHWVKQRPGQGLEWIGRIHPFDSDTNYNQKFKGKATLTVDKSSSTAYMQLSSLTSEDSAVYYCSIAGFAYWGQGTLVTVSA VL: DIVMTQSPATLSVTPGDRVSLSCRASQIISDYLNWYQQKSHESPRLLIKYASQSISGIPSRFSGSGSGSDFTLSINSVEPEDVGVYYCQNGHSFPLTFGAGTKLELK | 
no binding |  |  | 460 | MTK-209 (antibody, human IgG1, V domains shown) VH: QVQLQQPGAELVKPGASVKVSCKASGYTFTNYWIHWVKQRPGQGLEWIGRIHPFDSEPNYNQKFKGKATLTVDKSSSTAYMHLTSLTSEDSAVYYCALASFAYWGQGTLVTVSA VL: ETTVTQSPASLSMAMGEKATIRCITSTDIDDKMNWYQQKPGKPPKLLISAGNTLRPGVPSRFSSSGYGTDFVLTVENMLSEDVADYYCLQGGALPLTFGSGTKLEIK | 
no binding |  |  | 400 | MTK-203 (antibody, human IgG1, V domains shown) VH: QVQLQQPGAELVKPGASVKVSCKASGYTFTNYWMHWVKQRPGQGLEWIGRIHPFDTETNDNQKFKGKATLTVDKSSSTAYMQLSSLTSEDSAVYYCVIPANGGFAYWGQGTLVTVSA VL: ETTVTQSPASLSVATGEKVTIRCITSTDIGDDMNWYQQKPGEPPKVLISEGNSLRPGVPSRFSSSGYGTDFVFTIENTLSEDVADYFCLQSDNLPLTFGSGTKLEIK | 
no binding | 1.2 | 37 |  | MTK-210 (antibody, human IgG1, V domains shown) VH: QVQLQQSGPELVKPGASVKISCKASDYEFSRSWMNWVKQRPGKGLEWIGRIYPGDGDTNYNGKFKGKATLTADKSSNTAYMQLNSLTSEDSAVYFCARKGGYYYSISNYFDYWGQGTTLTVSS VL: QIVLTQSPAIMSASPGVKVTMTCSASSSVSYMHWYQQKPGSSPRLLIYDTSNLASGVPVRFSGSGSGTSYSLTISRMEAEDAATYYCQQWSSYPPYTFGGGTKLEIK | no binding (tested: analyte up to 600 nM)
no binding | 1.9 | 830 |  | MTK-219 (antibody, human IgG1, V domains shown) VH: QVQLQQSGADLMKPGASVKLSCKATGNTFTGYWIEWVKQRPGHGLEWIGEILTGSGSTNYNERFKGKATFTADTSSNTAYMQLSSLTTEDSAIYYCAGSYFTNSWFPYWGQGSLVTVSA VL: DIVLTQSPASLAVSLGQRATISCRASESVDSYGNSFMHWYQQKPGQPPKLLIYRAYTLESGIPARFSGSGSRTDFTLTINPVEADDVATYYCQQSNEDPRTFGGGTKLEIK | 
no binding | 1 | 130 |  | MTK-222 (antibody, human IgG1, V domains shown) VH: QVQLQQSGADLMKPGASVKLSCKATGYTFTGYWIEWVKQRPGHGLEWIGEILTGSGSSNYNEKFKGKATFTADSSSNTAFMQLSSLTTEDSAIYYCAGSYYSNSWFPYWGQGSLVTVSA VL: DIVLTQSPVSLAVSLGQRATISCRASESVDSYGSSFMHWYQQKPGQPPKLLIYRASSLESGIPARFSGSGSRTDFTLTINPVETDDVATYYCQQSNEDPRTFGGGTKLEIK | 
no binding | 0.8 | 78 | 8.3 | MTK-227 (antibody, human IgG1, V domains shown) VH: EVKLVESGGGLVQPGGSLSLSCAASGFTFTDNYMTWVRQPPGKALEWLGFSRNKANGYTTEYSASVKGRFTISRDSSQSILYLQMNALRAEDSGTYYCARFPPHYYAGGYFDVWGTGTTVTVSS VL: DIQMTQSPASLSASVGETVTITCRASENIYSYLAWYQQKQGKSPQLLVYNAKTLAEGVPSRFSGSGSGTQFSLKINSLQPADFGSYYCQHYYRTPPTFGGGTKLEIK | 
no binding |  |  | 29 | MTK-230 (antibody, human IgG1, V domains shown) VH: EVQLQQSGPELVKPGASVRIPCKASGYTFSDYNMDWVKQSHGKSLEWIGNINPNIGGTIYSQKFKGKATLTVDKSSSTAYMELRSLTSEDTAVYYCARGDYGFASWGQGTLVTVSA VL: DIVLTQSPASLTVSLGQRATISCRASRSVSTSGYSYMHWYQQKPGQPPKLLIYLASNLESGVPARFSGSRSGTDFTLNIHPVEEEDAATYYCQHSREYPFTFGSGTKLEIK | 
